This experiment deals with T1, human IL-12 (human, UniProt P29460 23-328; P29459 23-219).
T1 construct: also called Interleukin-12
T1 sequence 1: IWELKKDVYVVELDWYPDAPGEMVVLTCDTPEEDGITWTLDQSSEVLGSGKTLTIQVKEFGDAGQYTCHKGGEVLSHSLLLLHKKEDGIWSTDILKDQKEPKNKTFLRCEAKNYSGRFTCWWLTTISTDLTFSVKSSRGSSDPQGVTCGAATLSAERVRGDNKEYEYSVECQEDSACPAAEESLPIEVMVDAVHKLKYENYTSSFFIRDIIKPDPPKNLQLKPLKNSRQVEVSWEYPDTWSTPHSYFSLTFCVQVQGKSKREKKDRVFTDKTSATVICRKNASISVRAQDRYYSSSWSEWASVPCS
T1 sequence 2: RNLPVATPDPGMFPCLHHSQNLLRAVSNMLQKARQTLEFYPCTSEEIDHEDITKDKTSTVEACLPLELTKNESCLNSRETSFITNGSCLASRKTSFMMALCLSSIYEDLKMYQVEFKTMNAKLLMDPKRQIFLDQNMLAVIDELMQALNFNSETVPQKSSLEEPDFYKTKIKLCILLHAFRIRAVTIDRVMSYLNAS
As to the kind of experiment: SPR (Biacore T200), 37 C, pH 7.4; captured antibody, IL-12 analyte. The method, boiled down: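 Antibodies captured (~50 RU) on anti-human Fc surface, CM4 chip; 5 nM human IL-12 injected as analyte, then dissociation. Run at 37 °C in 20 mM ACES pH 7.4, 150 mM NaCl, 0.05% Tween 20; 3M MgCl₂ regeneration between cycles.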
Background: SPR reads the build-up and loss of mass on a sensor chip optically.

For 1 molecule, Kd results are on record in patent US20240343771A1 (Chugai, published 2024).

B1: Anti-IL-12 antibody Ab1 variant Y91M VH/Y49A, Y87L VL (antibody, name in Kabat numbering, V domains shown)
VH: QVQLVQSGAEVKKPGSSVKVSCKASGGTFSDYYLHWVRQAPGQGLEWMGWIDPENGDTEYAPKFQGRVTITADESTSTAYMELSSLRSEDTAVYMCARNKELRYFDVWGQGTLVTVSS
VL: DIVMTQSPLSLPVTPGEPASISCRASQSISINLHWYQQKPGQAPRLLIAFASQSISGVPSRFSGSGSGTDFTLTISSLQPEDFATYLCQQSNSFPLTFGQGTKVEIKR
notes: Ab1 with VH/VL interface substitutions; Kabat numbering
Take B1: the Kd (commonly the equilibrium constant for the complex coming apart) turned out to be 3.1 nM.
